According to paper PMC2690642 (Journal of neurochemistry, 2008):

B1: regulatory (R) domain of the N-methyl-D-aspartate receptor NR2A subunit, NR2A(23-389) (domain or fragment)
chain: not shown
B2: regulatory (R) domain of the N-methyl-D-aspartate receptor NR2B subunit, NR2B(27-390) (domain or fragment)
chain: not shown
B3: regulatory (R) domain of the N-methyl-D-aspartate receptor NR1 subunit, NR1(19-380) (domain or fragment)
chain: not shown

How the values were obtained:
SEC = molecular target: the molecule itself; experiment: SEC
[1] = molecular target: B2; experiment: co-IP
[2] = molecular target: B1; experiment: co-IP

Binder | percentage of the monomer form (SEC) | binding result [1] | binding result [2]
B1 | 73% |  | 
B2 | 71% |  | 
B3 | 37% | binds | binds
